According to patent publication US20150045540A1 (published 2015):

T1: Placenta Growth Factor (PlGF), human (human, UniProt P49763 21-149)
T1 chain: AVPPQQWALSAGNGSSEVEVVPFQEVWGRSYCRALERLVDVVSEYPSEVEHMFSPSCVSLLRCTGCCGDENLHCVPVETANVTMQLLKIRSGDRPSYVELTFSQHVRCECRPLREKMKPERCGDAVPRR

B1: HC 7/SLC 7 (antibody)
chain 1: GQGTLVTVSSASTKGPSQPVLHQPPAMSSALGTTIRLTCTLRNDHDIGVYSVYWYQQRPGHPPRFLLRYFSQSDKSQGPQVPPRFSGSKDVARNRGYLSISELQPEDEAMYYCAMGARSRCWPRGFQSKHNSVTHVFGSGTQLTVLSQPKATPSVTLFPPSSEELQANKATLVCLMNDFYPGILTVTWKADGTPITQGVEMTTPSKQSNNKYAASSYLSLTPEQWRSRRSYSCQVMHEGSTVEKTVAPAECS
chain 2: MSWAPVLLMLFVYCTGCGPQPVLHQPPAMSSALGTTIRLTCTLRNDHDIGVYSVYWYQQRPGHPPRFLLRYFSQSDKSQGPQVPPRFSGSKDVARNRGYLSISVTHVFGSGTQLTVLSQPKATPQVQLVQ
B2: HC 7/SLC 3 (antibody)
chain 1: B1 chain 1
chain 2: MSWAPVLLMLFVYCTGCGPQPVLHQPPAMSSALGTTIRLTCTLRNDHDIGVYSVYWYQQRPGHPPRFLLRYFSQSDKSQGPQVPPRFSGSKDVARNRGYLSISVTHVFGSGTQLTVLSQPQVQLVQ
B3: HC 9/SLC 7 (antibody)
chain 1: GQGTLVTVSSASTKGPSVFQPVLHQPPAMSSALGTTIRLTCTLRNDHDIGVYSVYWYQQRPGHPPRFLLRYFSQSDKSQGPQVPPRFSGSKDVARNRGYLSISELQPEDEAMYYCAMGARSRCWPRGFQSKHNSVTHVFGSGTQLTVLSQPKATPSVTLFPPSSEELQANKATLVCLMNDFYPGILTVTWKADGTPITQGVEMTTPSKQSNNKYAASSYLSLTPEQWRSRRSYSCQVMHEGSTVEKTVAPAECS
chain 2: B1 chain 2
B4: HC 8/SLC 5 (antibody)
chain 1: GQGTLVTVSSASTKGPSVQPVLHQPPAMSSALGTTIRLTCTLRNDHDIGVYSVYWYQQRPGHPPRFLLRYFSQSDKSQGPQVPPRFSGSKDVARNRGYLSISELQPEDEAMYYCAMGARSRCWPRGFQSKHNSVTHVFGSGTQLTVLSQPKATPSVTLFPPSSEELQANKATLVCLMNDFYPGILTVTWKADGTPITQGVEMTTPSKQSNNKYAASSYLSLTPEQWRSRRSYSCQVMHEGSTVEKTVAPAECS
chain 2: MSWAPVLLMLFVYCTGCGPQPVLHQPPAMSSALGTTIRLTCTLRNDHDIGVYSVYWYQQRPGHPPRFLLRYFSQSDKSQGPQVPPRFSGSKDVARNRGYLSISVTHVFGSGTQLTVLSQPKAQVQLVQ
B5: HC 8/SLC 9 (antibody)
chain 1: B4 chain 1
chain 2: MSWAPVLLMLFVYCTGCGPQPVLHQPPAMSSALGTTIRLTCTLRNDHDIGVYSVYWYQQRPGHPPRFLLRYFSQSDKSQGPQVPPRFSGSKDVARNRGYLSISVTHVFGSGTQLTVLSQPKATPSVQVQLVQ
B6: HC 6/SLC 5 (antibody)
chain 1: GQGTLVTVSSASTKGPQPVLHQPPAMSSALGTTIRLTCTLRNDHDIGVYSVYWYQQRPGHPPRFLLRYFSQSDKSQGPQVPPRFSGSKDVARNRGYLSISELQPEDEAMYYCAMGARSRCWPRGFQSKHNSVTHVFGSGTQLTVLSQPKATPSVTLFPPSSEELQANKATLVCLMNDFYPGILTVTWKADGTPITQGVEMTTPSKQSNNKYAASSYLSLTPEQWRSRRSYSCQVMHEGSTVEKTVAPAECS
chain 2: B4 chain 2
B7: HC 8/SLC 8 (antibody)
chain 1: B4 chain 1
chain 2: MSWAPVLLMLFVYCTGCGPQPVLHQPPAMSSALGTTIRLTCTLRNDHDIGVYSVYWYQQRPGHPPRFLLRYFSQSDKSQGPQVPPRFSGSKDVARNRGYLSISVTHVFGSGTQLTVLSQPKATPSQVQLVQ
B8: HC 8/SLC 2 (antibody)
chain 1: B4 chain 1
chain 2: MSWAPVLLMLFVYCTGCGPQPVLHQPPAMSSALGTTIRLTCTLRNDHDIGVYSVYWYQQRPGHPPRFLLRYFSQSDKSQGPQVPPRFSGSKDVARNRGYLSISVTHVFGSGTQLTVLSQQVQLVQ
B9: HC 3/SLC 6 (antibody)
chain 1: GQGTLVTVSSASTQPVLHQPPAMSSALGTTIRLTCTLRNDHDIGVYSVYWYQQRPGHPPRFLLRYFSQSDKSQGPQVPPRFSGSKDVARNRGYLSISELQPEDEAMYYCAMGARSRCWPRGFQSKHNSVTHVFGSGTQLTVLSQPKATPSVTLFPPSSEELQANKATLVCLMNDFYPGILTVTWKADGTPITQGVEMTTPSKQSNNKYAASSYLSLTPEQWRSRRSYSCQVMHEGSTVEKTVAPAECS
chain 2: MSWAPVLLMLFVYCTGCGPQPVLHQPPAMSSALGTTIRLTCTLRNDHDIGVYSVYWYQQRPGHPPRFLLRYFSQSDKSQGPQVPPRFSGSKDVARNRGYLSISVTHVFGSGTQLTVLSQPKATQVQLVQ
B10: HC 4/SLC 6 (antibody)
chain 1: GQGTLVTVSSASTKQPVLHQPPAMSSALGTTIRLTCTLRNDHDIGVYSVYWYQQRPGHPPRFLLRYFSQSDKSQGPQVPPRFSGSKDVARNRGYLSISELQPEDEAMYYCAMGARSRCWPRGFQSKHNSVTHVFGSGTQLTVLSQPKATPSVTLFPPSSEELQANKATLVCLMNDFYPGILTVTWKADGTPITQGVEMTTPSKQSNNKYAASSYLSLTPEQWRSRRSYSCQVMHEGSTVEKTVAPAECS
chain 2: B9 chain 2
B11: HC 5/SLC 4 (antibody)
chain 1: GQGTLVTVSSASTKGQPVLHQPPAMSSALGTTIRLTCTLRNDHDIGVYSVYWYQQRPGHPPRFLLRYFSQSDKSQGPQVPPRFSGSKDVARNRGYLSISELQPEDEAMYYCAMGARSRCWPRGFQSKHNSVTHVFGSGTQLTVLSQPKATPSVTLFPPSSEELQANKATLVCLMNDFYPGILTVTWKADGTPITQGVEMTTPSKQSNNKYAASSYLSLTPEQWRSRRSYSCQVMHEGSTVEKTVAPAECS
chain 2: MSWAPVLLMLFVYCTGCGPQPVLHQPPAMSSALGTTIRLTCTLRNDHDIGVYSVYWYQQRPGHPPRFLLRYFSQSDKSQGPQVPPRFSGSKDVARNRGYLSISVTHVFGSGTQLTVLSQPKQVQLVQ
B12: HC 5/SLC 5 (antibody)
chain 1: B11 chain 1
chain 2: B4 chain 2
B13: HC 9/SLC 15 (antibody)
chain 1: B3 chain 1
chain 2: MSWAPVLLMLFVYCTGCGPQPVLHQPPAMSSALGTTIRLTCTLRNDHDIGVYSVYWYQQRPGHPPRFLLRYFSQSDKSQGPQVPPRFSGSKDVARNRGYLSISVTHVFGSGTQLTVLSQPKATPSVTGGGGSQVQLVQ
B14: HC 9/SLC 2 (antibody)
chain 1: B3 chain 1
chain 2: B8 chain 2

Target: T1, Placenta Growth Factor (PlGF), human
Experiment: ELISA

EC50 [nM] | Binder
0.106 | B1
0.182 | B2
0.063 | B3
0.289 | B4
0.045 | B5
0.251 | B6
0.069 | B7
0.227 | B8
0.163 | B9
0.208 | B10
0.207 | B11
0.256 | B12
0.047 | B13
0.211 | B14

Target: Hepatocyte Growth Factor (HGF), human (human, UniProt P14210 32-728)
Sequence (P14210 32-728): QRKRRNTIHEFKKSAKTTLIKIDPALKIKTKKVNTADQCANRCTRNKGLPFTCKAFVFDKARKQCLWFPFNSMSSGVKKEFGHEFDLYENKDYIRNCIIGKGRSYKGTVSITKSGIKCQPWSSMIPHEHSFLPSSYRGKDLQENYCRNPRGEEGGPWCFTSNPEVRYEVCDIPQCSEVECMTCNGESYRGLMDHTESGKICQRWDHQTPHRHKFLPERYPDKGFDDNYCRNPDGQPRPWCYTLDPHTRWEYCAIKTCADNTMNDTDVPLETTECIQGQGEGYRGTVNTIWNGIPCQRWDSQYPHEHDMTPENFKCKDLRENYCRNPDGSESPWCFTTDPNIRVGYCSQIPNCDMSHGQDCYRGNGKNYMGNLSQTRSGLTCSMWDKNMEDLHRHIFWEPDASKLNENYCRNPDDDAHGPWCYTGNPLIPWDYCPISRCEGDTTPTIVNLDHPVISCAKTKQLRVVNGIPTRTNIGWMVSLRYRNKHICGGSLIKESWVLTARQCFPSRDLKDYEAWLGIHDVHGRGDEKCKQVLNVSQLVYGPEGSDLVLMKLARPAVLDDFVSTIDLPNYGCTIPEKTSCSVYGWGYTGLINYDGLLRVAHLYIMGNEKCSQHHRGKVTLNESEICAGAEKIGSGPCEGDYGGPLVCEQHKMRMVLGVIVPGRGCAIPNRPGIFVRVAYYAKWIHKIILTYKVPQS
Experiment: ELISA

EC50 [nM] | Binder
0.056 | B1
0.067 | B2
0.059 | B3
0.063 | B4
0.049 | B5
0.066 | B6
0.056 | B7
0.059 | B8
0.057 | B9
0.063 | B10
0.065 | B11
0.063 | B12
0.049 | B13
0.062 | B14
